Source: publication PMC3163529

Target: recombinant human PKA catalytic subunit Cα2 (human) (UniProt P17612)
Experiment: SPR; C subunits amine-coupled to CM5 chip (about 300 RU), R subunits injected at 30 μl/min; 25°C; 20 mM MOPS pH 7, 150 mM NaCl, 1 mM ATP, 5 mM MgCl2, 50 μM EDTA, 0.005% P20; Langmuir 1:1 model; Biacore 2000 or 3000

Kd: 0.9 nM
kon: 900000 M⁻¹ s⁻¹
Substance: recombinant human PKA regulatory subunit RIIβ (from UniProt P31323 1-418) (natural protein; other documents disagree on this pair)
